Laboratory results taken from patent US20110217237A1 (AbbVie / Abbott, published 2011).

What was measured:
[1] = target: T1, human DLL4 extracellular domain (human, UniProt Q9NR61 27-529); assay: capture ELISA, biotin-huDLL4 ECD
T1 construct: purified recombinant ECD; biotin-labelled or 6xHis-tagged depending on the assay; also called huDLL4 ECD; hu DLL4 ECD

[2] = target: T2, human DLL4, full length, on cells (human, UniProt Q9NR61 27-685); assay: cell-based or functional assay
[3] = target: T1, human DLL4 extracellular domain; assay: SPR (Biacore)
Method: Binding of DLL4 antibodies to a purified recombinant DLL4 extracellular domain (ECD) was determined by surface plasmon resonance-based measurements with a Biacore® instrument (either a Biacore 2000, Biacore 3000, or Biacore T100; GE Healthcare, Piscataway, N.J., US) using running buffer HBS-EPB (10 mM HEPES [pH 7.4], 150 mM NaCl, 3 mM EDTA, 0.1 mg/ml BSA and 0.005% surfactant P20) at 25° C. For example, approximately 9000 RU of goat anti-human Fc specific polyclonal antibody (Thermo Fisher Scientific Inc., Rockford, Ill., US) diluted in 10 mM sodium acetate (pH 4.5) is directly immobilized across a CMS research grade biosensor chip using a standard amine coupling kit according to manufacturer's instructions and procedures at 25 μg/ml. Unreacted moieties on the biosensor surface were blocked with ethanolamine. For kinetic analysis, rate equations derived from the 1:1 Langmuir binding model were fitted simultaneously to multiple antigen injections (using global fit analysis) with the use of Scrubber 2 (BioLogic Software), Biacore Biaevaluation 4.0.1 software or Biacore T100 Evaluation software. Purified antibodies were diluted in running buffer for capture across goat anti-human Fc reaction surfaces. Antibodies to be captured as a ligand (1 μg/ml) were injected over reaction matrices at a flow rate of 10 μl/min. During the assay, all measurements were referenced against the capture surface alone (i.e., with no captured anti-DLL4 antibody). […] The equilibrium dissociation constant KD (M) of the reaction between antibodies and the target antigen was then calculated from the kinetic rate constants by the following formula: KD=Koff/Kₒₙ. Binding was recorded as a function of time and kinetic rate constants were calculated. In this assay, on-rates as fast as 10⁶ M⁻¹s⁻¹ and off-rates as slow as 10⁻⁶ s⁻¹ could be measured.
The good binder variants, as determined by binding ELISA, were assessed by Biacore (Example 1.1) concurrently with cell based assay screens.

[4] = target: T2, human DLL4, full length, on cells; assay: FACS, DLL4 cells
Method: Stable cell lines overexpressing cell-surface DLL4 were harvested from tissue culture flasks, washed four times and resuspended in phosphate buffered saline (PBS) containing 1% bovine serum albumin and 1 mM CaCl₂ (FACS buffer). 1.5×10⁵ cells were incubated with antibodies at various concentrations in FACS buffer for 60 minutes on ice. […] Following an incubation on ice (4° C., 60 minutes), cells were washed three times and resuspended in FACS buffer. Fluorescence was measured using a Becton Dickinson FACSCalibur-HTS (Becton Dickinson, San Jose, Calif., US). Data were analyzed using Graphpad Prism software and EC₅₀ values were reported as the concentration of antibody to achieve 50% of maximal DLL4 antibodies binding to DLL4 expressing cells.
The good binder variants, as determined by binding ELISA, were assessed by Biacore (Example 1.1) concurrently with cell based assay screens. The KD for human DLL4 was similar for all variants (see, Biacore, KD in Table 18, below).

[5] = target: T1, human DLL4 extracellular domain; assay: competition ELISA vs Notch-1 Fc
Method: Plates were then washed 3 times with wash buffer (PBS, 0.05% Tween-20) and blocked with 200 μl/well blocking buffer (D-PBS, 1% BSA, 1 mM CaCl₂, 0.05% Tween-20) for 1 hour at 25° C. While blocking, biotin labeled DLL4 extracellular domain (14 nM) was mixed with antibody (30 pM-66 nM, 3-fold serial dilution in blocking buffer) for 1 hour at 25° C. with shaking. Assay plates were washed after blocking, and incubated with DLL4/antibody mixtures (100 μl/well, 1 hour at 25° C. with shaking). Plates were washed again and 100 μl/well streptavidin conjugated with HRP (Fitzgerald #65R-S104PHRPx, diluted 1:5,000 in blocking buffer) was added for 1 hour at 25° C. with shaking. After a final wash, plates were developed using 100 μl/well substrate (TMB Sigma #T8665), and the reaction was stopped using 100 μl/well 1N HCl, and the absorbance was read at 450 nm. Data were analyzed using Graphpad Prism software and IC₅₀ values were reported as the concentration of antibody to achieve 50% reduction of DLL4 bound to Notch1.
Purified variants were further characterized in human Notch-1 competition ELISAs (Example 1.4), which used a format of plating Notch-1 Fc onto ELISA plates and pre-incubating biotinylated human DLL4 plus titrated antibody. Signal was assessed by free biotinylated DLL4 binding to Notch-1 Fc.

T2 sequence (Q9NR61 27-685 limits assumed): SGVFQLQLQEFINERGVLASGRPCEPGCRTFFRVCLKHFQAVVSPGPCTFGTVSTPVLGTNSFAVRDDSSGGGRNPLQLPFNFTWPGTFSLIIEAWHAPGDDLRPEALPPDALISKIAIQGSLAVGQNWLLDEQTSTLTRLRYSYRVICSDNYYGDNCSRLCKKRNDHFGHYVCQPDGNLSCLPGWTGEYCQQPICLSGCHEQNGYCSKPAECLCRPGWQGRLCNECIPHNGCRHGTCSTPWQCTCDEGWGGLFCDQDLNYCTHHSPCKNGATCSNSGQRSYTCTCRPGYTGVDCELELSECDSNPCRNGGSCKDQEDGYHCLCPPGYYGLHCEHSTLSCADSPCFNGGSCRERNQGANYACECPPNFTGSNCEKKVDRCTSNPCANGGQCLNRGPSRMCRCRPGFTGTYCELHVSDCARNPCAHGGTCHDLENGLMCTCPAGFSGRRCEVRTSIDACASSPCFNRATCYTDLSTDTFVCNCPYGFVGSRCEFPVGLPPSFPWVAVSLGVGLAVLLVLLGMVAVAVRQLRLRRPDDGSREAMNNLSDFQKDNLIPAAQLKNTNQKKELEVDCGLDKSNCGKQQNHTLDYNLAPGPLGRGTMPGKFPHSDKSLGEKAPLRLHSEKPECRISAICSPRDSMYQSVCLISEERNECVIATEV
T1 sequence (Q9NR61 27-529 limits assumed): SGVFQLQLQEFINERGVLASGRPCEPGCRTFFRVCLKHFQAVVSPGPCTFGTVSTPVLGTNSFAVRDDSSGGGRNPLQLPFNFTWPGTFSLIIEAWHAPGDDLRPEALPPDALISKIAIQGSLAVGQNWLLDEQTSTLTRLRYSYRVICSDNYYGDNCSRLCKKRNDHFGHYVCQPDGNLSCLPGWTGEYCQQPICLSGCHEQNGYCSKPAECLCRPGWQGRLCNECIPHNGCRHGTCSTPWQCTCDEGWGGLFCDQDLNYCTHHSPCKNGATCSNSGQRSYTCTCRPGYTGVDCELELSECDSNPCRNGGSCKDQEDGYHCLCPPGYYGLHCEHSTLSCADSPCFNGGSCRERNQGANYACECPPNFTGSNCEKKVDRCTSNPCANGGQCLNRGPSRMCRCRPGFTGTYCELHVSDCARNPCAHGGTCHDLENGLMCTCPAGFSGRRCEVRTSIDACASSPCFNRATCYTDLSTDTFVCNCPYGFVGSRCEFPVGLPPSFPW

Row | EC50 [1] [nM] | Notch Reporter Assay EC50 [2] [nM] | Kd [3] [nM] | EC50 [4] [nM] | EC50 [5] [nM] | Binder
1 | 0.126 | 0.657 | 0.554 | 2.48 | 3.8 | h38H12.11 (antibody, V domains shown, humanized IgG; also called VH.1b/VL.1b 38H12) VH: EVQLVESGGGVVQPGRSLRLSCAASGFTFSNYGMYWVRQAPGKGLEWVAFISHGGGITYYRDSVKGRFTISRDNSKNTLYLQMNSLRAEDTAVYYCAALNWELGIDYWGQGTMVTVSS VL: DIQMTQSPSSLSASVGDRVTITCRASEDIYSNLAWYQQKPGKAPKLLIYAANRLQDGVPSRFSGSGSGTDYTLTISSLQPEDFATYYCLQGSKFPLTFGQGTKLEIKR
2 | 0.165 | 1.06 | 0.819 | 1.48 | 3.23 | h38H12.12 (antibody, V domains shown, humanized IgG; also called VH.1b/VL.2a 38H12) VH: EVQLVESGGGVVQPGRSLRLSCAASGFTFSNYGMYWVRQAPGKGLEWVAFISHGGGITYYRDSVKGRFTISRDNSKNTLYLQMNSLRAEDTAVYYCAALNWELGIDYWGQGTMVTVSS VL: EIVMTQSPATLSVSPGERATLSCRASEDIYSNLAWYQKKPGQSPRLLIYAANRLQDGVPARFSGSGSGTEYTLTISSLQSEDFAVYFCLQGSKFPLTFGQGTKLEIKR
3 | 0.18 | 2.6 | 0.34 | 19.1 | 12.5 | h38H12.7 (antibody, V domains shown, humanized IgG; also called VH.1a/VL.1b 38H12) VH: EVQLVESGGGVVQPGRSLRLSCAASGFTFSNYGMYWIRQAPGKGLEWVAFISHGGGITYYRDSVKGRFTISRDNSKSTLYLQMNSLRAEDTAVYHCAALNWELGIDYWGQGTMVTVSS VL: DIQMTQSPSSLSASVGDRVTITCRASEDIYSNLAWYQQKPGKAPKLLIYAANRLQDGVPSRFSGSGSGTDYTLTISSLQPEDFATYYCLQGSKFPLTFGQGTKLEIKR
4 | 0.123 | 0.786 | 0.578 | 2.49 | 3.9 | h38H12.10 (antibody, V domains shown, humanized IgG; also called VH.1b/VL.1a 38H12) VH: EVQLVESGGGVVQPGRSLRLSCAASGFTFSNYGMYWVRQAPGKGLEWVAFISHGGGITYYRDSVKGRFTISRDNSKNTLYLQMNSLRAEDTAVYYCAALNWELGIDYWGQGTMVTVSS VL: DIQMTQSPSSLSASVGDRVTITCRASEDIYSNLAWYQKKPGKSPKLLIYAANRLQDGVPSRFSGSGSGTDYTLTISSLQPEDFATYFCLQGSKFPLTFGQGTKLEIKR
5 | 0.116 | 1.44 | 0.986 | 3.71 | 4.16 | h38H12.9 (antibody, V domains shown, humanized IgG; also called VH.1b/VL.1 38H12) VH: EVQLVESGGGVVQPGRSLRLSCAASGFTFSNYGMYWVRQAPGKGLEWVAFISHGGGITYYRDSVKGRFTISRDNSKNTLYLQMNSLRAEDTAVYYCAALNWELGIDYWGQGTMVTVSS VL: DIQMTQSPSSLSASVGDRVTITCRASEDIYSNLAWYQQKPGKAPKLLIYAANRLQDGVPSRFSGSGSGTDFTLTISSLQPEDFATYYCLQGSKFPLTFGQGTKLEIKR
6 | 0.197 | 5.56 | 0.397 | 20 | 8.31 | h38H12.8 (antibody, V domains shown, humanized IgG; also called VH.1a/VL.2a 38H12) VH: EVQLVESGGGVVQPGRSLRLSCAASGFTFSNYGMYWIRQAPGKGLEWVAFISHGGGITYYRDSVKGRFTISRDNSKSTLYLQMNSLRAEDTAVYHCAALNWELGIDYWGQGTMVTVSS VL: EIVMTQSPATLSVSPGERATLSCRASEDIYSNLAWYQKKPGQSPRLLIYAANRLQDGVPARFSGSGSGTEYTLTISSLQSEDFAVYFCLQGSKFPLTFGQGTKLEIKR
7 | 0.0904 | 0.837 | 0.355 | 2.37 | 5.71 | h38H12.15 (antibody, V domains shown, humanized IgG; also called VH.2a/VL.1b 38H12) VH: EVQLVESGGGLVQPGGSLRLSCAASGFTFSNYGMYWIRQAPGKGLEWVAFISHGGGITYYRDSVKGRFTISRDNSKSTLYLQMNSLRAEDTAVYHCAALNWELGIDYWGQGTMVTVSS VL: DIQMTQSPSSLSASVGDRVTITCRASEDIYSNLAWYQQKPGKAPKLLIYAANRLQDGVPSRFSGSGSGTDYTLTISSLQPEDFATYYCLQGSKFPLTFGQGTKLEIKR
8 | 0.153 | 0.794 | 0.507 | 2.56 | 5.29 | h38H12.13 (antibody, V domains shown, humanized IgG; also called VH.2a/VL.1 38H12) VH: EVQLVESGGGLVQPGGSLRLSCAASGFTFSNYGMYWIRQAPGKGLEWVAFISHGGGITYYRDSVKGRFTISRDNSKSTLYLQMNSLRAEDTAVYHCAALNWELGIDYWGQGTMVTVSS VL: DIQMTQSPSSLSASVGDRVTITCRASEDIYSNLAWYQQKPGKAPKLLIYAANRLQDGVPSRFSGSGSGTDFTLTISSLQPEDFATYYCLQGSKFPLTFGQGTKLEIKR
9 | 0.202 | 7.31 | 0.401 | 77.2 | 14.8 | h38H12.5 (antibody, V domains shown, humanized IgG; also called VH.1a/VL.1 38H12) VH: EVQLVESGGGVVQPGRSLRLSCAASGFTFSNYGMYWIRQAPGKGLEWVAFISHGGGITYYRDSVKGRFTISRDNSKSTLYLQMNSLRAEDTAVYHCAALNWELGIDYWGQGTMVTVSS VL: DIQMTQSPSSLSASVGDRVTITCRASEDIYSNLAWYQQKPGKAPKLLIYAANRLQDGVPSRFSGSGSGTDFTLTISSLQPEDFATYYCLQGSKFPLTFGQGTKLEIKR
10 | 0.17 | 1.19 | 0.392 | 2.91 | 3.77 | h38H12.16 (antibody, V domains shown, humanized IgG; also called VH.2a/VL.2a 38H12) VH: EVQLVESGGGLVQPGGSLRLSCAASGFTFSNYGMYWIRQAPGKGLEWVAFISHGGGITYYRDSVKGRFTISRDNSKSTLYLQMNSLRAEDTAVYHCAALNWELGIDYWGQGTMVTVSS VL: EIVMTQSPATLSVSPGERATLSCRASEDIYSNLAWYQKKPGQSPRLLIYAANRLQDGVPARFSGSGSGTEYTLTISSLQSEDFAVYFCLQGSKFPLTFGQGTKLEIKR
11 | 0.146 | 1.01 | 0.303 | 1.04 | 5.84 | h38H12.14 (antibody, V domains shown, humanized IgG; also called VH.2a/VL.1a 38H12) VH: EVQLVESGGGLVQPGGSLRLSCAASGFTFSNYGMYWIRQAPGKGLEWVAFISHGGGITYYRDSVKGRFTISRDNSKSTLYLQMNSLRAEDTAVYHCAALNWELGIDYWGQGTMVTVSS VL: DIQMTQSPSSLSASVGDRVTITCRASEDIYSNLAWYQKKPGKSPKLLIYAANRLQDGVPSRFSGSGSGTDYTLTISSLQPEDFATYFCLQGSKFPLTFGQGTKLEIKR
12 | 0.158 | 6.32 | 0.434 | 12.3 | 27 | h38H12.6 (antibody, V domains shown, humanized IgG; also called VH.1a/VL.1a 38H12) VH: EVQLVESGGGVVQPGRSLRLSCAASGFTFSNYGMYWIRQAPGKGLEWVAFISHGGGITYYRDSVKGRFTISRDNSKSTLYLQMNSLRAEDTAVYHCAALNWELGIDYWGQGTMVTVSS VL: DIQMTQSPSSLSASVGDRVTITCRASEDIYSNLAWYQKKPGKSPKLLIYAANRLQDGVPSRFSGSGSGTDYTLTISSLQPEDFATYFCLQGSKFPLTFGQGTKLEIKR
